Earlier results on one substance are cited in PMC10582360, “A nanoparticle platform for combined mucosal healing and immunomodulation in inflammatory bowel disease treatment” (Bioactive materials, 2023).

In the series the test system is dipeptidyl peptidase IV (DPP-IV). The note with it: ref [4]. The text has this:
Teduglutide, a GLP-2 analog with prolonged half-life, is commercialized as a daily subcutaneous injection (Gattex®, Revestive®) for its use in short bowel syndrome (SBS) in patients who are dependent on parenteral support. A second long-acting GLP-2 analog, glepaglutide (Zealand Pharma), has just ...

Take Glucagon-like peptide 2 [GLP-2]: the “cleavage by DPP-IV” value is “rapidly cleaved”.
